For test [1], the target named is T1, rat albumin (rat, UniProt P02770 25-608). In words: phage ELISA. How it is done: (§1) Phage ELISA—Phage clones (˜10¹¹ phage) were added to plates coated with rat, rabbit or human albumin. The microtiter plate was washed with wash buffer and bound phage were detected with HRP/Anti-M13 Conjugate. The amount of HRP bound was measured using ABTS/H₂O₂ substrate and monitoring the change at 405 nm.
(§2) This was tested using a phage ELISA.
(In general: In an ELISA, binding on a coated surface is turned into a signal by an enzyme label.)

The target in test [2] is T2, rabbit albumin (rabbit, UniProt P49065 25-608). In words: phage ELISA. How it is done:
as §1, §2

Test [3] concerns the target T3, human albumin (human, UniProt P02768 25-609). Nature of the test: phage ELISA. The protocol:
as §1, §2

Test [4] concerns the target T1, rat albumin. Nature of the test: phage ELISA. The protocol:
as §1
The source holds these as a separate data set.

Test [5] concerns the target T2, rabbit albumin. In words: phage ELISA. How it is done:
as §1
This is another data set of the same source.

In a further test the target is T4, ovalbumin (UniProt P01012 2-386).
T4 sequence (looked up): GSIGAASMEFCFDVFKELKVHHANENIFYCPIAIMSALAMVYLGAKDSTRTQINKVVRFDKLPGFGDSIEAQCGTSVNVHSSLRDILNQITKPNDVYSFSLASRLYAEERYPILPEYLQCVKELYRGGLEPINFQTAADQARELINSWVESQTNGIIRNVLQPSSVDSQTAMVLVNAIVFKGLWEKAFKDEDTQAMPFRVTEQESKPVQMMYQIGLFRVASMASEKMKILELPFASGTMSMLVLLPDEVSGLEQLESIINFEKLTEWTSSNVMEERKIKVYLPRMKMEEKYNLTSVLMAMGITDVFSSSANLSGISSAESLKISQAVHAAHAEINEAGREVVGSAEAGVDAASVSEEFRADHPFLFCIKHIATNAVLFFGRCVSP
Nature of the test: phage ELISA, photograph of the plate.

In test [6] the target is T1, rat albumin. In words: phage ELISA, photograph of the plate.
The target of test [7] is T5, mouse albumin (mouse, UniProt P07724 25-608). In words: phage ELISA, photograph of the plate.
For test [8], the target named is T1, rat albumin. Nature of the test: SA08b binding assay: competition with biotinylated SA08b for immobilized albumin. The protocol: (§3) Plates were blocked using Blocker Casein (Pierce Chemical, Rockford, Ill.) for 1 hr, at 25° C. […] The amount of HRP bound was measured using ABTS/H₂O₂ substrate and monitoring the change at 405 nm.
The target of test [9] is T2, rabbit albumin. Described as above. How it is done:
as §3

Test [10] has as its target T5, mouse albumin. Described as above. How it is done:
as §3

Test [11] deals with T3, human albumin. Nature of the test: phage ELISA. The protocol: as §1
The source holds these as a separate data set.

The next test deals with bovine albumin (bovine, UniProt P02769 25-607). In words: phage ELISA, photograph of the plate.

Like-named read-outs stand apart in the source and are kept apart here. Bridges are numbered along the chain shown (N, C = ends). Where no end group is shown, it is not given here. code n = not defined here

T1 sequence (P02770 25-608 limits assumed): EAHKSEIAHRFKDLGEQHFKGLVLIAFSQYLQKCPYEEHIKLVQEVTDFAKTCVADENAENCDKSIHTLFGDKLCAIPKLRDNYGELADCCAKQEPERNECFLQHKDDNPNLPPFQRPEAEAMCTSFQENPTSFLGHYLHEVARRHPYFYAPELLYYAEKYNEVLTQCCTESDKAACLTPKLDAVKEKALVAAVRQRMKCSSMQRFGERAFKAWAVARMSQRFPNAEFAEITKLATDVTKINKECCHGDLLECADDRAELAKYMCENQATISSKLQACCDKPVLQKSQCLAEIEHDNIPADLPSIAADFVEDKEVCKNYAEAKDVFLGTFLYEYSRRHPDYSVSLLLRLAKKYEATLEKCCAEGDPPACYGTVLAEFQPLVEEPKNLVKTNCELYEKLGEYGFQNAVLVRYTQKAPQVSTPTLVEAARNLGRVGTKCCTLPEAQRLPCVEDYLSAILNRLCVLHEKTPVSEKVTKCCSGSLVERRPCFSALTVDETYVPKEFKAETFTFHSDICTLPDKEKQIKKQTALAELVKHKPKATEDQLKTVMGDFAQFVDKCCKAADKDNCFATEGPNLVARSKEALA
T2 sequence (P49065 25-608 limits assumed): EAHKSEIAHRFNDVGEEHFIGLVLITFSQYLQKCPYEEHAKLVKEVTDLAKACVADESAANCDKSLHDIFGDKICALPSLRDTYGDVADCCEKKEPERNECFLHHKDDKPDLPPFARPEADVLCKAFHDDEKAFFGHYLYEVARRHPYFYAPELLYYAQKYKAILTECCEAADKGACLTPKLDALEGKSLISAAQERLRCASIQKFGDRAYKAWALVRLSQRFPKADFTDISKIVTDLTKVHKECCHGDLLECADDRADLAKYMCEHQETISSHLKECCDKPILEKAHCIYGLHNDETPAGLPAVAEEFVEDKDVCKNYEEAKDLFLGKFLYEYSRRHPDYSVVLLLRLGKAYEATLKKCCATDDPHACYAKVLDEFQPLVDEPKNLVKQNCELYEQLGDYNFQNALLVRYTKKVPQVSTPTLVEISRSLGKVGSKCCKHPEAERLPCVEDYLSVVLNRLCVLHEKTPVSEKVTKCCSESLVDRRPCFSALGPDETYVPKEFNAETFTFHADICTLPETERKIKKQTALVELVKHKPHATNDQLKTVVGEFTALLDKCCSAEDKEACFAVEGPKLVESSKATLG
T5 sequence (P07724 25-608 limits assumed): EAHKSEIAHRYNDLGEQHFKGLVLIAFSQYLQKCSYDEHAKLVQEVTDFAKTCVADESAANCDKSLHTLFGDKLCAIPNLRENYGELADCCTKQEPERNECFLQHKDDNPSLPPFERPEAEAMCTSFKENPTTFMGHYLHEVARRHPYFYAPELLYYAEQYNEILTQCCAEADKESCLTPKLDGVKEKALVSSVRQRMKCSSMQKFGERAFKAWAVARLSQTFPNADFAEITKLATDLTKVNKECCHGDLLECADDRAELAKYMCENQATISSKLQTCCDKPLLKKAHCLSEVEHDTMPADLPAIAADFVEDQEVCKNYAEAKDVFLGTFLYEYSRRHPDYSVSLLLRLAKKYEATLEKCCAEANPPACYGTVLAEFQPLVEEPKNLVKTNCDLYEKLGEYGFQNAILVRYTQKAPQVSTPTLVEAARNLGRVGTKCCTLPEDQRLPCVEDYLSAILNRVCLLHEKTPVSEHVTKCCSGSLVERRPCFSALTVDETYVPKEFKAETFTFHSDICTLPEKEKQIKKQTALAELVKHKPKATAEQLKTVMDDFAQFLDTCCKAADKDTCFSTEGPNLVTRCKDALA
Chain of bovine albumin (P02769 25-607 limits assumed): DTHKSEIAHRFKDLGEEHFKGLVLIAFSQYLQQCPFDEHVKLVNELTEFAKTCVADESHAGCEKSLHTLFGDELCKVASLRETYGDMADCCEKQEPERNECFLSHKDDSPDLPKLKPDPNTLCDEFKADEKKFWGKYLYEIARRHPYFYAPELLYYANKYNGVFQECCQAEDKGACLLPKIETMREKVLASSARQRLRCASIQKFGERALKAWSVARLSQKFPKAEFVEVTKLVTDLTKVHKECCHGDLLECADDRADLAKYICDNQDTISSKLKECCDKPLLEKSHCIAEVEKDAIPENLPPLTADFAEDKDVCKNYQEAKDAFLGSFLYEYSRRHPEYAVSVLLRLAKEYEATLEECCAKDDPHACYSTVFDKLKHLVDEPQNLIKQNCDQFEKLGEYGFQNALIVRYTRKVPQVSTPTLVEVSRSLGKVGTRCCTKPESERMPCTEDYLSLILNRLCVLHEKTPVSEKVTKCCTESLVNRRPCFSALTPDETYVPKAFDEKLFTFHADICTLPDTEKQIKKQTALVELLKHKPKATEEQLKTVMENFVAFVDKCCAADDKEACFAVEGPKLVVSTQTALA

B1: HA (peptide)
peptide: EVRSFCTDWPAEKSCKPLRG
modifications: not fully specified (bridges); printed as Glu-Val-Arg-Ser-Phe-Cys-Thr-Asp-Trp-Pro-Ala-Glu-Lys-Ser-Cys-Lys-Pro-Leu-Arg-Gly; cysteine pairing not given here
notes: phage clone selected on human SA
On to B1, for which the binding result with rat albumin [1] is listed as “no binding”; with rabbit albumin [2], “no binding”; in the test with human albumin [3], “binds”.

Consider DLCDVDFCWF (phage clone selected on rabbit SA) [BC], for which the binding result with rat albumin [1] and with human albumin [3] was “no binding” throughout.

B2: HB (peptide)
peptide: RAPESFVCYWETICFERSEQ
modifications: not fully specified (bridges); printed as Arg-Ala-Pro-Glu-Ser-Phe-Val-Cys-Tyr-Trp-Glu-Thr-Ile-Cys-Phe-Glu-Arg-Ser-Glu-Gln; cysteine pairing not given here
notes: as for B1
On to B2, for which the binding result was “binds” with rat albumin [1], “no binding” with rabbit albumin [2] and “binds” in the test with human albumin [3].

Turning to RNEDPCVVLLEMGLECWEGV (phage clone selected on rat SA) [RA], the binding result in the test with rabbit albumin [2] and in the test with human albumin [3] was “no binding” in each case.

For the molecule KSCSELHWLLVEECLF (phage clone selected on rabbit SA) [BD], the binding result with rat albumin [1] and with human albumin [3] was “no binding” throughout.

For the molecule DTCVDLVRLGLECWG (phage clone selected on rat SA) [RD], the binding result with rabbit albumin [2] and in the test with human albumin [3] was “no binding” in each case.

With DSEVCYFPGICWSGT (phage clone, Library HBC) [HBC-H1], the binding result with rat albumin [4], in the test with rabbit albumin [5] and with ovalbumin was “no binding” throughout.

DLCLRDWGCLW (phage clone selected on rat SA) [RC]: the binding result with rabbit albumin [2] and in the test with human albumin [3] was “no binding” each time.

B3: HC (peptide)
peptide: EMCYFPGICWM
modifications: not fully specified (bridges); printed as Glu-Met-Cys-Tyr-Phe-Pro-Gly-Ile-Cys-Trp-Met; cysteine pairing not given here
notes: as for B1
In the case of B3, the binding result with rat albumin [1] is on record as “binds”; with rabbit albumin [2], “no binding”; with human albumin [3], “binds”.

RAAESSVCYWPGICFDRTEQ (not fully specified (bridges); cysteine pairing not given here, phage clone, Library HB) [HB-H2]: the binding result in the test with rabbit albumin [5], in the test with rat albumin [6], in the test with ovalbumin and in the test with mouse albumin [7] was “no binding” each time.

B4: SA07 (peptide)
peptide: QGLIGDICLPRWGCLWGDSV-{code n}
modifications: disulfide 8-14 (inferred); reading uncertain; also: printed as Gln-Gly-Leu-Ile-Gly-Asp-Ile-Cys-Leu-Pro-Arg-Trp-Gly-Cys-Leu-Trp-Gly-Asp-Ser-Val
notes: synthesized peptide
With B4, the values for the IC50 in the test with rat albumin [8], in the test with rabbit albumin [9] and with mouse albumin [10] were 35 nM, 30 nM and 6 nM, respectively.

B5: SA11 (peptide)
peptide: Ac-MEDICLPRWGCLWEDD-{code n}
modifications: disulfide 5-11 (inferred); reading uncertain; also: printed as Met-Glu-Asp-Ile-Cys-Leu-Pro-Arg-Trp-Gly-Cys-Leu-Trp-Glu-Asp-Asp
notes: synthesized peptide
In the case of B5, the IC50 in the test with rat albumin [8] stood at 232 nM; in the test with rabbit albumin [9] it was 1210 nM; with mouse albumin [10], 17 nM.

Turning to GENWCDSTLMAYDLCGQVNM (phage clone selected on rabbit SA) [BA], the binding result with rat albumin [1] and with human albumin [3] was “no binding” throughout.

B6: SA05 (peptide)
peptide: MEDICLPRWGCLWED-{code n}
modifications: disulfide 5-11 (inferred); reading uncertain; also: printed as Met-Glu-Asp-Ile-Cys-Leu-Pro-Arg-Trp-Gly-Cys-Leu-Trp-Glu-Asp
notes: synthesized peptide
Consider B6, for which the results for the IC50 with rat albumin [8], in the test with rabbit albumin [9] and with mouse albumin [10] were 161 nM, 804 nM and 6 nM, respectively.

With MDELAFYCGIWECLMHQEQK (phage clone selected on rabbit SA) [BB], the binding result in the test with rat albumin [1] and with human albumin [3] was “no binding” each time.

Regarding CGCVDVSDWDCWSECLWSHGA (phage clone selected on rat SA) [RE], the binding result with rabbit albumin [2] and with human albumin [3] was “no binding” in each case.

B7: SA09 (peptide)
peptide: Ac-EDICLPRWGCLWEDD-{code n}
modifications: disulfide 4-10 (inferred); reading uncertain; also: printed as Glu-Asp-Ile-Cys-Leu-Pro-Arg-Trp-Gly-Cys-Leu-Trp-Glu-Asp-Asp
notes: synthesized peptide
For the molecule B7, the values for the IC50 in the test with rat albumin [8], in the test with rabbit albumin [9] and with mouse albumin [10] were 258 nM, 1690 nM and 6 nM, respectively.

Regarding DTCADLVRLGLECWA (phage clone, Library RD) [RD-R2], the binding result with rabbit albumin [5], with human albumin [11] and with ovalbumin was “no binding” each time.

B8: SA12 (peptide)
peptide: Ac-MEDICLPRWGCLWED-{code n}
modifications: disulfide 5-11 (inferred); reading uncertain; also: printed as Met-Glu-Asp-Ile-Cys-Leu-Pro-Arg-Trp-Gly-Cys-Leu-Trp-Glu-Asp
notes: synthesized peptide
Take B8: the results for the IC50 in the test with rat albumin [8], in the test with rabbit albumin [9] and in the test with mouse albumin [10] were 205 nM, 1760 nM and 13 nM, respectively.

Turning to DICLPRWGCLW (phage clone, Library RC) [RC-R13], the binding result with human albumin [11], with ovalbumin and with bovine albumin was “no binding” in each case.

B9: SA04 (peptide)
peptide: DICLPRWGCLW-{code n}
modifications: disulfide 3-9 (inferred); reading uncertain; also: printed as Asp-Ile-Cys-Leu-Pro-Arg-Trp-Gly-Cys-Leu-Trp
notes: synthesized peptide
Regarding B9, the values for the IC50 with rat albumin [8], in the test with rabbit albumin [9] and in the test with mouse albumin [10] were 787 nM, 8540 nM and 40 nM, respectively.

Regarding EEDLCLPVWGCLWGA (not fully specified (bridges); cysteine pairing not given here, phage clone, Library RBC) [RBC-R14], the binding result with rabbit albumin [5], in the test with human albumin [11], with ovalbumin and with bovine albumin was “no binding” in each case.

Broadly, the IC50 is the concentration at which inhibition is half-maximal. Low values mean greater potency, high ones weaker potency.

Values taken from patent US20040253247A1 (Genentech, published 2004).
